# Measured values taken from patent US20220380776A1.
# Molecular target: CD46 (UniProt P15529)
# Assay: Kd, method not stated (column head 'Kd (Oleks)')
# Sequence of UniProt P15529 (P15529 35-343 limits assumed): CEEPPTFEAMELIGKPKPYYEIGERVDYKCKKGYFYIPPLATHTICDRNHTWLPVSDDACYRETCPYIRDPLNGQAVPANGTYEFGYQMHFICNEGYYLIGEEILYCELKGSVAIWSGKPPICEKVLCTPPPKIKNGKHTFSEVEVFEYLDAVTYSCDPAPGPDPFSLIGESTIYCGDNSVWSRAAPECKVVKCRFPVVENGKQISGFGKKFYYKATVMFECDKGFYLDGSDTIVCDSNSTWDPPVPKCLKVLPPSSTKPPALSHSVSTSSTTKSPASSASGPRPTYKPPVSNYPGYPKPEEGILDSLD
substance,measurement,value
Ad35 knob A8: Ile192Val Ile256Val,Kd,13.7 nM
